Data from PMC6319348, “Phase I/II clinical trial of the targeted chemotherapeutic drug, folate-tubulysin, in dogs with naturally-occurring invasive urothelial carcinoma” (Oncotarget, 2018).
Several values for one entry are separate records, joined by “and”; a condition that tells them apart may be missing. Equal values may be shown once. Entries after “also recorded” stand apart in the source; their conditions may differ. Marks after values point to notes of the source that are not given here.

Legend:
Assay type in all cases: in vivo, dog
[1] = Phase I dose escalation: safety, tolerability, MTD (VCOG-CTCAE); settings: dog, in vivo; intravenous, every two weeks; dogs with iUC; read-out: maximum tolerated dose (MTD)
Description: (§1) […] […] The 10 pet dogs in the pilot study included six neutered male dogs and four spayed female dogs of a variety of breeds and weighing between 5 and 46 kg.
(§2) Dogs in dosage cohorts were enrolled using a 3+3 trial design. Inter-patient and intra-patient dose escalation was permitted. Drug tolerability was assessed by owner questionnaire, physical exam, CBC the day of treatment and seven days following treatment, and biochemistry panel at four-week intervals. Toxicity was graded using VCOG-CTCAE criteria. The EC0531 dose was increased by 0.02 mg/kg in each subsequent dose cohort if no dose limiting toxicity (DLT) was recorded. DLT was defined as an adverse event (AE) > grade 2. When a grade 3 AE occurred, the cohort was expanded to at least six dogs including six new dogs, i.e. six dogs that had not received prior EC0531 at lower doses. If more than one grade 3 AE or any grade 4 or 5 AE occurred, then six dogs were enrolled at the previous cohort. The MTD was defined as the highest dose tolerated by six dogs with no more than one grade 3 AE and no grade 4–5 AE. Intra-patient dose escalation was permitted if no AEs had occurred after two doses of the drug had been administered.
(§3) In individual dogs, the EC0531 dose was reduced by 10% if grade 2 toxicity was noted, and by 20% if grade 3 or higher toxicity was noted. Treatment was delayed by one week if the neutrophil count was <3,000/mm^3 or platelet count <100,000/mm^3 the day treatment was due.

[2] = system: dogs with naturally-occurring invasive urothelial carcinoma (iUC); assay: as above
Description: as §1, §2, §3

[3] = system: naturally-occurring invasive urothelial carcinoma (iUC); assay: Phase I/II antitumor activity (tumor response, progression free interval)
Description: In order to estimate antitumor activity, the cohort of dogs receiving the MTD was expanded with the goal to assess antitumor effects in a minimum of 24 dogs treated at or above the MTD [37]. The effects of EC0531 on the tumor were assessed by cystosonography using a specific standardized protocol and physical exam including rectal exam at four-week intervals. Complete cancer staging (thoracic radiography with left lateral, right lateral, and ventrodorsal projections; abdominal radiography with right lateral and ventrodorsal projections; and complete abdominal ultrasonography) was performed at eight-week intervals. The response in the primary tumor was determined by comparing volume measurements by cystosonography as follows: complete remission (CR, no cancer detected), partial remission (PR, ≥50% decrease in tumor volume and no new tumor lesions), stable disease (SD, <50% change in tumor volume and no new tumor lesions), and progressive disease (PD, ≥50% increase in tumor volume or the development of new tumor lesions). Metastatic lesion response was assessed by RECIST criteria. Progression free interval (PFI) was defined as the time from start of EC0531 treatment until PD of local or metastatic lesion(s). Permission to perform a necropsy was requested at the time of the dog’s death (death from cancer or other causes). Tissues collected at necropsy were examined histologically and immunohistochemically to detect FR expression in primary and metastatic lesions.
Stepwise Cox regression analysis was performed to assess the relationship between predictor variables and […] (PFI). The following variables were assessed: age, weight, sex, peripheral blood neutrophil-to-lymphocyte ratio at the start of treatment, tumor location (bladder vs urethra/prostate vs both), treatment beginning at < MTD or ≥ MTD, pretreatment with chemotherapy, concurrent use of COXi, IHC/ICC score, and best tumor response (PD vs SD vs PR/CR). Variables with p-values < 0.25 in univariate models were then included in multivariate modeling. Variable(s) with a p-value < 0.05 in the final multi-variable Cox regression model were considered to have a significant effect on PFI.

[4] = Drug concentration in iUC tissue samples; settings: three dogs, approximately three hours after treatment, 0.28 mg/kg EC0531
Description: Tubes were centrifuged, and plasma collected and stored at –80° C.
Internal standard was added to all samples prior to extraction using a 200 µL SLE+ plate (Biotage, Charlotte, NC, USA). The eluate was collected, evaporated, and reconstituted with acetone prior to sealing and heating the collection plate for 1 hour. After incubation, the extracts were again evaporated and finally reconstituted prior to injection. The extracted samples were injected into a UPLC/MS/MS system (Waters) using a BEH shield RP18 reverse phase column (Waters) and eluted under isocratic conditions. […] Incurred sample concentrations were then back-calculated against a calibration curve prepared in blank dog plasma. […] Samples were homogenized in buffer with a bead beater, or hand held homogenizer. Aliquots (100 µL) of each sample were spiked with 400 µL internal standards in acetone. The extracts were sealed and incubated at 55° C for 1 hour. The extracts were then evaporated to remove acetone, and reconstituted. Finally, reconstituted samples were analyzed by injection into a UPLC-MS/MS system (Waters) to evaluate concentrations of EC0531 and metabolites against a prepared calibration curve.

[5] = dogs that had received and failed prior chemotherapy
[6] = non-responders, dogs with PD after the initial two treatments

CCCC(=O)OCN(C(=O)[C@@H](NC(=O)[C@H]1CCCCN1C)[C@@H](C)CC)[C@H](C[C@@H](OC(C)=O)c1nc(C(=O)N[C@@H](Cc2ccc(O)cc2)C[C@H](C)C(=O)NNC(=O)OCCSSC[C@H](NC(=O)[C@H](CCC(=O)NC[C@H](O)[C@@H](O)[C@H](O)[C@H](O)CO)NC(=O)CC[C@H](NC(=O)[C@H](CCC(=O)NC[C@H](O)[C@@H](O)[C@H](O)[C@H](O)CO)NC(=O)CC[C@H](NC(=O)[C@H](CCC(=O)NC[C@H](O)[C@@H](O)[C@H](O)[C@H](O)CO)NC(=O)CC[C@H](NC(=O)c2ccc(NCc3cnc4nc(N)[nH]c(=O)c4n3)cc2)C(=O)O)C(=O)O)C(=O)O)C(=O)O)cs1)C(C)C [EC0531]
MTD [1]: 0.26 mg/kg
tolerability of treatment at the MTD ([2]; 0.26 mg/kg every two weeks): well tolerated
withdrawal from the study due to AE / toxicity ([2]; 28 dogs): No dog withdrew; also recorded: no dogs were removed
toxicity noted ([2]; 28 dogs, 311 doses): neutropenia, anorexia, or lethargy
overall tolerability ([2]; 28 dogs, total of 311 doses): generally well tolerated
infusion reaction ([2]; a single dog, transient): hypotension, compensatory tachycardia, and subsequent syncopal episode
Adverse events defined by VCOG-CTCAE ([2]; dose 0.28 mg/kg, 10 dogs, 63 doses): 1 dog with G1 vomiting^a 1 dog with G1lethargy and G3 weight loss (DLT)^a 1 dog with G4 neutropenia (DLT)^b 1 dog with G4 infusion reaction (DLT)^b
Adverse events defined by VCOG-CTCAE ([2]; dose 0.34 mg/kg, 1 dog, 5 doses): G3 anorexia and 1 dog with G3 anorexia (DLT)
Adverse events defined by VCOG-CTCAE ([2]; dose 0.18 (mg/kg), 1 dog, 6 doses): 1 dog with G1 anorexia
Adverse events defined by VCOG-CTCAE ([2]; dose 0.20 (mg/kg), 4 dogs, 14 doses): 1 dog with G2 anorexia
Adverse events defined by VCOG-CTCAE ([2]; dose 0.22 (mg/kg), 4 dogs, 10 doses): 1 dog with G1 lethargy
Adverse events defined by VCOG-CTCAE ([2]; dose 0.24 (mg/kg), 4 dogs, 16 doses): 1 dog with G2 neutropenia
Adverse events defined by VCOG-CTCAE ([2]; dose 0.26 (mg/kg), 6 dogs, 33 doses): 1 dog with G1 lethargy 1 dog with G1 vomiting and G1 neutropenia 1 dog with G2 neutropenia 1 dog with G3 neutropenia (DLT) and G2 diarrhea
Adverse events defined by VCOG-CTCAE ([2]; dose 0.30 (mg/kg), 2 dogs, 15 doses): 1 dog with G3 neutropenia (DLT)
Adverse events defined by VCOG-CTCAE ([2]; dose 0.32 (mg/kg), 1 dog, 2 doses): No adverse events observed
toxicity observed at doses higher than the MTD ([2]; doses above 0.26 mg/kg every two weeks): grade 3-4 neutropenia and gastrointestinal toxicity
thrombocytopenia ([2]; one dog, heavily pretreated with chemotherapy, chronically low platelet counts): grade 2 thrombocytopenia
outcome of weekly dose interval ([2]; pilot study in pet dogs): suspended due to neutropenia
neutrophil nadir ([2]; pilot study in pet dogs with iUC, n = 10 dogs): four to seven days after treatment
outcome of twice weekly dosing ([2]; pilot study in pet dogs, dosing not continued): dose limiting-neutropenia and anorexia
PR, percent of dogs ([3]; 28 dogs): 11%
clinical benefit rate ([3]; 28 dogs): 71%
PFI range ([3]; all dogs (n = 28)): 24 to 649 days
median PFI ([3]; all dogs (n = 28)): 103 days
hazard ratio for PFI ([3]; dogs achieving PR vs dogs with PD): 0.003 (95% CI 0–0.066)
HR for earlier PD [3, 5]: 4.6 (95% CI 1.2–16.7)
PFI range [3, 5]: 34–162
median PFI [3, 5]: 95 days
PFI range ([3]; dogs with SD): 56 to 296 days
median PFI ([3]; dogs with SD): 200 days
hazard ratio for PFI ([3]; dogs with SD vs dogs with PD): 0.013 (95% CI 0.001–0.124)
PFI range [3, 6]: 24–47
median PFI [3, 6]: 34 days
clinical benefit (PR + SD), number of dogs ([3]; of 28 dogs): 20 dogs
partial remission (PR), number of dogs ([3]; of 28 dogs): three
stable disease (SD), number of dogs ([3]; of 28 dogs): 17 dogs
PFI or time of censoring ([3]; the three individual dogs achieving PR): 162 days and 251 days and 649 days
tumor response ([3]; the two dogs receiving all of their doses below the MTD): SD and PD
level at 3 h ([4]; dog, iUC tumor tissue, iv, read-out: concentration of EC0531 in iUC tissues): 3.9 ng/mL
concentration of EC0531 in iUC tissues [4]: below the level of detection
